The source of these data is PMC11952670.

The target in assay [1] is C-terminal domain of F-BclA (F-BclA-CTD) (Bacillus thuringiensis subsp. kurstaki). Nature of the assay: crystal structure; F-BclA-CTD; 1M LiCl, 0.1M citrate pH 4.0, 20% (w/v) PEG 6000; P321.
The target of assay [2] is ExsF, first 23 residues replaced by a 6xHis tag (B. paranthracis). Nature of the assay: crystal structure; co-crystallisation of 6xHis-ExsF with the synthetic F-Anchor peptide; 5% v/v T-mate pH 7, 0.1 M sodium cacodylate pH 5.3, 15% v/v PEG smear broad, 10% v/v ethylene glycol; 1.92 Å, P21.

“C-terminal domain of F-BclA (F-BclA-CTD) (domain or fragment)” registered a stoichiometry N in assay [1] of 3. “ExsF, first 23 residues replaced by a 6xHis tag (domain or fragment)” gave a stoichiometry N in assay [2] of 3.

The term stoichiometry N denotes the number of molecules, sites or subunits per partner or assembly.
